pKd: −log10 of the molar value. “Also recorded” adds a separate entry of the source.
Experiments:
[1] = Circular dichroism spectroscopy analysis (CD spectra, variable temperature measurement, refolding); format: physicochemical
Description: The respective Y variant was diluted to 0.5 mg/ml in PBS. A CD spectrum at 250-195 nm was obtained at 20° C. In addition, a variable temperature measurement (VTM) was performed to determine the melting temperature (Tm). In the VTM, absorbance was measured at 221 nm while the temperature was raised from 20° C. to 90° C. with a temperature gradient of 5° C./min. A new CD spectrum was obtained at 20° C. after the heating procedure, in order to study the refolding ability of the Y variants. The CD measurements were performed on a Jasco J-810 spectropolarimeter (Jasco Scandinavia AB) using a cell with an optical path length of 1 mm.
(§1) Produced Y variants were subjected to CD and SPR analyses according to the methods described in Example 1.
(§2) The Y variants were cloned, produced and characterized according to the general methods described in Example 1. Produced Y variants with point mutations and/or N-terminal or C-terminal extensions were subjected to CD and SPR analyses as described in Example 1.
(§3) Produced Y variants were subjected to CD and SPR analyses according to the methods described in Example 1. In addition, CD spectra of selected IL-6 binding variants were also recorded at 60, 70, 80 and 90° C.
(§4) The Y variants were cloned, produced and characterized according to the general methods described in Example 1. Produced Y variants with point mutations were subjected to CD and SPR analyses as described in Example 1. In addition, CD spectra of the IL-6 binding variants were also recorded at 60, 70, 80 and 90° C.

insulin = target: T1, insulin (Homo sapiens, UniProt P01308); test: Kinetic analysis using surface plasmon resonance (Biacore T200), immobilized insulin; format: binding
T1 construct: purchased Roche 1376497
T1 sequence (P01308 25-54 limits assumed): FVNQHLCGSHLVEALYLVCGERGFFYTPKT
T1 sequence (P01308 90-110 limits assumed): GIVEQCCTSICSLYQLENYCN
Description: Kinetic constants (ka and kd) and affinities (KD) were determined for His6-tagged Y variants using a Biacore T200 instrument (GE Healthcare). Target proteins C4, IL-6 and insulin, respectively, were immobilized in separate flow cells on the carboxylated dextran layer of different CM5 chip surfaces (GE Healthcare). Immobilization was performed using amine coupling chemistry according to the manufacturer's protocol and PBS pH 7.4 supplemented with 0.1 Tween20 (PBST 0.1%) as running buffer. The ligand immobilization levels on the surfaces were 3280-8830 RU for C4, 495-1184 RU for IL-6, and 270-282 RU for insulin. One flow cell surface on each chip was activated and deactivated for use as blank during analyte injections. In the kinetic experiment, PBST 0.1% was used as running buffer at a flow rate of 30 μl/min. The analytes, i.e. Y variants, were each diluted in PBST 0.1 buffer at concentrations of 1000, 500, 100, 50 and 10 nM and injected for 5 min, followed by dissociation in running buffer for 3 min. After dissociation, the surfaces were regenerated with one injection of 30 μl 10 mM HCl. Kinetic constants were calculated from the sensorgrams using the Langmuir 1:1 model of Biacore T200 Evaluation software 2.0 (GE Healthcare).
as §1, §2, §3, §4

[2] = Table 4, mutation study 2, MGSSHHHHHHGSS-[Y#####]
[3] = Table 2, Ylib001Naive.I selection, MGSSHHHHHHGSS-[Y#####]-ASGSVD, 0.5 mg/ml in PBS, 221 nm, 20-90° C.
[4] = Table 3, mutation study 1, MGSSHHHHHHGSS-[Y#####]

| pKd (insulin; [4]) | Substance | Tm [1, 2] [°C] | Tm [1, 4] [°C] | further results |
| --- | --- | --- | --- | --- |
| – | Y00288: C4 binding Y variant, Y00262 with E39Q, SEQ ID NO:25 (LAEAKEAAIAELDSKGINEAIIKKIERAESVEEVEYWKQEILAQLP; Engineered C4 binding Y variant) | 66 | – | – |
| – | Y00006: C4 binding Y variant from Ylib001Naive.I, SEQ ID NO:6 (LAEAKEAAIAELDSYGVVANLKKKIEIAKSVEQVEFWKEEILAQLP; Engineered C4 binding Y variant) | – | – | Tm [1, 3]: 49 °C |
| 6.96 | Y00272: insulin binding Y variant, Y00032 with A28G, SEQ ID NO:119 (LAEAKEAAIAELDSKGVGAYQKSFIELGKSVEHVELLKEAILADLP; Engineered insulin binding Y variant) | – | 34 | – |
| – | Y00262: C4 binding Y variant, Y00001 with S23K, SEQ ID NO:18 (LAEAKEAAIAELDSKGINEAIIKKIERAESVEEVEYWKEEILAQLP; Engineered C4 binding Y variant) | 61 | 61 | – |
| – | Y00289: C4 binding Y variant, Y00262 with E35Q + E39Q, SEQ ID NO:26 (LAEAKEAAIAELDSKGINEAIIKKIERAESVEEVQYWKQEILAQLP; Engineered C4 binding Y variant) | 65 | – | – |
| 7.11 | Y00270: insulin binding Y variant, Y00032 with K22I + S23K, SEQ ID NO:117 (LAEAKEAAIAELDSKGVGAYQIKFIELAKSVEHVELLKEAILADLP; Engineered insulin binding Y variant) | 52 | 52 | – |
| – | Y00283: C4 binding Y variant, Y00262 with N18S, SEQ ID NO:20 (LAEAKEAAIAELDSKGISEAIIKKIERAESVEEVEYWKEEILAQLP; Engineered C4 binding Y variant) | 61 | – | – |
| – | Y00295: insulin binding Y variant, Y00270 with E35Q + E39Q + A43K, SEQ ID NO:127 (LAEAKEAAIAELDSKGVGAYQIKFIELAKSVEHVQLLKQAILKDLP; Engineered insulin binding Y variant) | 52 | – | pKd (insulin; [2]): 6.24 |
| – | Y00005: C4 binding Y variant from Ylib001Naive.I, SEQ ID NO:5 (LAEAKEAAIAELDSAGVNEVQKSKIEQASSVEEVEFWKEEILAQLP; Engineered C4 binding Y variant) | – | – | Tm [1, 3]: 60 °C |
| 7.12 | Y00276: insulin binding Y variant, Y00032 with A43K, SEQ ID NO:123 (LAEAKEAAIAELDSKGVGAYQKSFIELAKSVEHVELLKEAILKDLP; Engineered insulin binding Y variant) | – | 50 | – |
| 7.25 | Y00266: insulin binding Y variant, Y00032 with G18S, SEQ ID NO:113 (LAEAKEAAIAELDSKGVSAYQKSFIELAKSVEHVELLKEAILADLP; Engineered insulin binding Y variant) | – | 50 | – |
| – | Y00292: insulin binding Y variant, Y00032 with S23K + E35Q + E39Q, SEQ ID NO:124 (LAEAKEAAIAELDSKGVGAYQKKFIELAKSVEHVQLLKQAILADLP; Engineered insulin binding Y variant) | 57 | – | pKd (insulin; [2]): 6.35 |
| 7.08 | Y00268: insulin binding Y variant, Y00032 with K22I, SEQ ID NO:115 (LAEAKEAAIAELDSKGVGAYQISFIELAKSVEHVELLKEAILADLP; Engineered insulin binding Y variant) | – | 49 | – |
| 7.25 | Y00274: insulin binding Y variant, Y00032 with E35Q, SEQ ID NO:121 (LAEAKEAAIAELDSKGVGAYQKSFIELAKSVEHVQLLKEAILADLP; Engineered insulin binding Y variant) | – | 53 | – |
| 7.20 | Y00032: insulin binding Y variant from Ylib001Naive.I, SEQ ID NO:90 (LAEAKEAAIAELDSKGVGAYQKSFIELAKSVEHVELLKEAILADLP; Engineered insulin binding Y variant) | 49 | 49 | pKd (insulin; Table 2, His6-tagged Y variant, MGSSHHHHHHGSS-[Y#####]-ASGSVD): 7.30; α-helical content / ability to fold into an α-helical structure ([1]; CD spectrum at 20° C.): considerably higher α-helical content; also recorded: good ability to fold into an α-helical structure; Tm [1, 3]: 47 °C |
| 6.41 | Y00269: insulin binding Y variant, Y00032 with S23K, SEQ ID NO:116 (LAEAKEAAIAELDSKGVGAYQKKFIELAKSVEHVELLKEAILADLP; Engineered insulin binding Y variant) | – | 50 | – |
| 7.19 | Y00264: insulin binding Y variant, Y00032 with K15Y, SEQ ID NO:111 (LAEAKEAAIAELDSYGVGAYQKSFIELAKSVEHVELLKEAILADLP; Engineered insulin binding Y variant) | – | 48 | – |
| 6.89 | Y00263: insulin binding Y variant, Y00032 with D13K, SEQ ID NO:110 (LAEAKEAAIAELKSKGVGAYQKSFIELAKSVEHVELLKEAILADLP; Engineered insulin binding Y variant) | – | 43 | – |
| 7.11 | Y00273: insulin binding Y variant, Y00032 with E32Q, SEQ ID NO:120 (LAEAKEAAIAELDSKGVGAYQKSFIELAKSVQHVELLKEAILADLP; Engineered insulin binding Y variant) | – | – | – |
| 6.92 | Y00265: insulin binding Y variant, Y00032 with V17I, SEQ ID NO:112 (LAEAKEAAIAELDSKGIGAYQKSFIELAKSVEHVELLKEAILADLP; Engineered insulin binding Y variant) | – | 47 | – |
| – | Y00291: C4 binding Y variant, Y00262 with E35Q + E39Q + A43K, SEQ ID NO:28 (LAEAKEAAIAELDSKGINEAIIKKIERAESVEEVQYWKQEILKQLP; Engineered C4 binding Y variant) | 66 | – | – |
| – | Y00284: C4 binding Y variant, Y00262 with E19A, SEQ ID NO:21 (LAEAKEAAIAELDSKGINAAIIKKIERAESVEEVEYWKEEILAQLP; Engineered C4 binding Y variant) | 64 | – | – |
| – | Y00282: C4 binding Y variant, Y00262 with I17V, SEQ ID NO:19 (LAEAKEAAIAELDSKGVNEAIIKKIERAESVEEVEYWKEEILAQLP; Engineered C4 binding Y variant) | 61 | – | – |
| – | Y00290: C4 binding Y variant, Y00262 with E35Q + A43K, SEQ ID NO:27 (LAEAKEAAIAELDSKGINEAIIKKIERAESVEEVQYWKEEILKQLP; Engineered C4 binding Y variant) | 69 | – | – |
| – | Y00285: C4 binding Y variant, Y00262 with I22K, SEQ ID NO:22 (LAEAKEAAIAELDSKGINEAIKKKIERAESVEEVEYWKEEILAQLP; Engineered C4 binding Y variant) | 57 | – | – |
| – | Y00287: C4 binding Y variant, Y00262 with E35Q, SEQ ID NO:24 (LAEAKEAAIAELDSKGINEAIIKKIERAESVEEVQYWKEEILAQLP; Engineered C4 binding Y variant) | 62 | – | – |
| – | Y00001: C4 binding Y variant from Ylib001Naive.I, SEQ ID NO:1 (LAEAKEAAIAELDSKGINEAIISKIERAESVEEVEYWKEEILAQLP; Engineered C4 binding Y variant) | – | 57 | Tm [1, 3]: 61 °C |
| – | Y00286: C4 binding Y variant, Y00262 with E26Q, SEQ ID NO:23 (LAEAKEAAIAELDSKGINEAIIKKIQRAESVEEVEYWKEEILAQLP; Engineered C4 binding Y variant) | 62 | – | – |
| – | Y00004: C4 binding Y variant from Ylib001Naive.I, SEQ ID NO:4 (LAEAKEAANAELDSYGVDADLIKKIERAESVEEVEFWKEEILAHLP; Engineered C4 binding Y variant) | – | – | Tm [1, 3]: 45 °C |

From patent US11505576B2, “Polypeptides based on a scaffold” (AFFIBODY AB, priority 2018, dated 2022)
